Laboratory results: patent publication US20180312579A1 (Genentech, published 2018)
Changes are numbered by the printed parent chain. One block for each binder: values may come before it.

Key:
[1] = target: T1, human RSPO3 with C-terminal HA tag, stably expressed in 293 cells (human, UniProt Q9BXY4 22-272); test: IHC, FFPE 293 cell pellet, RSPO3 Hi
T1 construct: Whole open reading frame expressed in HEK-293 cells (high, medium, low); FFPE pellets; also called hRSPO3; RSPO3 Hi
T1 sequence: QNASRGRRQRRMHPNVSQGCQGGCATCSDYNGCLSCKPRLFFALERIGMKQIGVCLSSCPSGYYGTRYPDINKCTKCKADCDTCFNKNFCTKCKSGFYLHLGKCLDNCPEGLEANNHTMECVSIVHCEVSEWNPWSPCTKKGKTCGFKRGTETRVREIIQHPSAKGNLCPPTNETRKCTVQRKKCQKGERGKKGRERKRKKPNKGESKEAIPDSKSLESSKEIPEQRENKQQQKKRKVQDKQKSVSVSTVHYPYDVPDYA

cynomolgus RSPO3 [2] = target: T2, cynomolgus RSPO3 (cynomolgus, UniProt A0A2K5UTQ7 22-273); test: cell-based or functional assay
T2 sequence: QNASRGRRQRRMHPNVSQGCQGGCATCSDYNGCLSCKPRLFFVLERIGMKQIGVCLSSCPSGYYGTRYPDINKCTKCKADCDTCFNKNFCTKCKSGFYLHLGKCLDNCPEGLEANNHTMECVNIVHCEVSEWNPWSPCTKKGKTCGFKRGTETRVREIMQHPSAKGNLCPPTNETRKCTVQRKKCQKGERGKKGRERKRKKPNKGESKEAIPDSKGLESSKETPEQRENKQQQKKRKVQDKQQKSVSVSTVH

mouse RSPO3 [3] = target: T3, mouse RSPO3 (mouse, UniProt Q2TJ95 22-277, limits assumed); test: cell-based or functional assay
T3 sequence (looked up): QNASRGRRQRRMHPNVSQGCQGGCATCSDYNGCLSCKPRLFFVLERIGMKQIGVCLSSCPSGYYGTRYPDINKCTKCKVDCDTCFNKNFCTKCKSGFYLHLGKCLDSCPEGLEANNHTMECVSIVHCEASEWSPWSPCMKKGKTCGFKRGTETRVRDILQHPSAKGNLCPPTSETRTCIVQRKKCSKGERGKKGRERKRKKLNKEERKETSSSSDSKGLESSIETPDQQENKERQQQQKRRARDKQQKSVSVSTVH

recombinant human RSPO3 [4] = target: T4, recombinant human RSPO3 (human, UniProt Q9BXY4 22-272); test: cell-based or functional assay
T4 sequence: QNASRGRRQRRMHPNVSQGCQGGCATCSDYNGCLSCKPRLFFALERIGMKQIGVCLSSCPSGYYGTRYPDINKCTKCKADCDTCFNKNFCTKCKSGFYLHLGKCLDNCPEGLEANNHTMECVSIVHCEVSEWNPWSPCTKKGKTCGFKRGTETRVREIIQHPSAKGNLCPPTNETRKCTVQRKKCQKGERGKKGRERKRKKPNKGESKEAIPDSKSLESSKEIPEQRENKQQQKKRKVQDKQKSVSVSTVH

recombinant human RSPO2 = recombinant human RSPO2 (human, UniProt Q6UXX9 22-243); test: cell-based or functional assay
Sequence of recombinant human RSPO2 (Q6UXX9 22-243): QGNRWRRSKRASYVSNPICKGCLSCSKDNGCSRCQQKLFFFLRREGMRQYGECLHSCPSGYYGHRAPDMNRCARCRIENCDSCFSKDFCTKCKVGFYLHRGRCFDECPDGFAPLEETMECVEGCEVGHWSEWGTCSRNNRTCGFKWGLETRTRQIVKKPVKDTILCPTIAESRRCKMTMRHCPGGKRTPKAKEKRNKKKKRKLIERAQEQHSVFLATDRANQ

mouse RSPO2 [5] = target: T5, mouse RSPO2 (mouse, UniProt Q8BFU0 22-205, limits assumed); test: cell-based or functional assay
T5 sequence (Q8BFU0 22-205 limits assumed): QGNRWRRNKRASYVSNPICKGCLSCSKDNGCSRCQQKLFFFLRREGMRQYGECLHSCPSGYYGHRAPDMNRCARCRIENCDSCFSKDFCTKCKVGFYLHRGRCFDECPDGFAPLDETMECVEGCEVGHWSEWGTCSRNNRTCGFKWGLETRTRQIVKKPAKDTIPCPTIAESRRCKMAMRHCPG

cynomolgus RSPO2 = cynomolgus RSPO2 (cynomolgus, UniProt G7PCH9 22-243); test: cell-based or functional assay
Sequence of cynomolgus RSPO2 (G7PCH9 entry or part of it): as the sequence (Q6UXX9 22-243) above, with V160A, L165P, T178A counted along it

[6] = target: T6, human RSPO4 with C-terminal HA tag, stably expressed in 293 cells (human, UniProt Q2I0M5 20-234); test: IHC, FFPE 293 cell pellet, RSPO4 Hi; - = not significant staining
T6 construct: also called hRSPO4; RSPO4 Hi
T6 sequence (Q2I0M5 other isoform, or with tags, fused parts or gaps limits assumed): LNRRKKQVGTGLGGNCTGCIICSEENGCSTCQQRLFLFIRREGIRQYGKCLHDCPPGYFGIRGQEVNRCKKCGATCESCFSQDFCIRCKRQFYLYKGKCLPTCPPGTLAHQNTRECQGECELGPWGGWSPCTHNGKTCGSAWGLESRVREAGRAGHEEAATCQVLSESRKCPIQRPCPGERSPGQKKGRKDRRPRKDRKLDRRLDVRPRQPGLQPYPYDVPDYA

[7] = target: T1, human RSPO3 with C-terminal HA tag, …; test: IHC, FFPE 293 cell pellet, RSPO3 Low
[8] = target: T1, human RSPO3 with C-terminal HA tag, …; test: IHC, FFPE 293 cell pellet, RSPO3 Med
[9] = target: T7, FLAG-tagged human RSPO3 (Genentech) (human, UniProt Q9BXY4 22-272); test: competitive binding ELISA: antibody titrated against LGR4-Fc (LGR4-ECD) binding to plate-coated hRSPO3; signal = bound LGR4-Fc, OD(450/630)/OD no antibody
T7 construct: also called hRSPO3; RSPO3 coated plates; not shown: FLAG tag
T7 sequence: T4 sequence
Protocol: To measure the activity of anti-RSPO antibodies in blocking the binding of LGR4 and -5 ECDs to RSPOs, MaxiSorp 384-well microwell plates (Thermo Scientific Nunc, Roskilde, Denmark) were coated with 25 ul/well of 0.5 μg/ml hRSPO2 or hRSPO3 (Genentech) in 50 mM carbonate buffer, pH 9.6, overnight at 4° C. Plates were blocked with at 80 ul/well of 0.5% bovine serum albumin, 15 parts per million Proclin 300 in phosphate buffered saline (PBS), pH 7.4, for 1 hour. Serially diluted anti-RSPO antibodies ([…] in […] serial dilution plus buffer blank) containing 0.1 μg/ml LGR4-Fc or 0.015 μg/ml LGR5-Fc in assay buffer (0.5% BSA, 0.05% polysorbate 20, 15 parts per million Proclin 300 in PBS) were added to the plates at 25 ul/well. After a 2-hour incubation, LGR4-Fc and LGR5-Fc bound to the plates were detected using peroxidase labeled goat F(ab′)2 anti-human Fc (Jackson ImmunoResearch, West Grove, Pa.). After a 1 hour incubation, the substrate 3,3′,5,5′-tetramethyl benzidine (Moss Inc., Pasadena, Md.) was added to the plates and the reaction was stopped by adding 1 M phosphoric acid. Plates were washed with PBS, pH 7.4, containing 0.05% tween 20, between steps and all the incubation steps following the coating step were performed at room temperature on an orbital shaker. Absorbance was read at 450 nm on a multiskan Ascent reader (Thermo Scientific, Hudson, N.H.).

[10] = target: T8, human RSPO1 with C-terminal HA tag, stably expressed in 293 cells (human, UniProt Q2MKA7 21-263); test: IHC, FFPE 293 cell pellet, RSPO1 Hi; - = not significant staining
T8 construct: also called hRSPO1; RSPO1 Hi
T8 sequence (Q2MKA7 other isoform, or with tags, fused parts or gaps limits assumed): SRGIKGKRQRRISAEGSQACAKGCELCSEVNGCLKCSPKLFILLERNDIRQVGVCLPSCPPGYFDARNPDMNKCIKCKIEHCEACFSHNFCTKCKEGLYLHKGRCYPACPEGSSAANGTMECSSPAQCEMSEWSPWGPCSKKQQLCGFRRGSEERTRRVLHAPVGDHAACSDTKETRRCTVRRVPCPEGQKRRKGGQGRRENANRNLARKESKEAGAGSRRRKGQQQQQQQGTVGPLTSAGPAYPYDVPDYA

recombinant human RSPO3 [11] = target: T4, recombinant human RSPO3; test: SPR (Biacore) with the Fab; table row RSPO3, Affinity (nM) Fab
Protocol: (§1) For kinetic measurements, two-fold serial dilutions of anti-RSPO Fabs were injected in HBS-P buffer (0.01M HEPES pH 7.4, 0.15M NaCl, 0.005% surfactant P20) at 25° C. with a flow rate of 30 μl/min. Association rates (kₒₙ) and dissociation rates (koff) were calculated using a simple one-to-one Langmuir binding model (BIAcore Evaluation Software version 3.2). The equilibrium dissociation constant (KD) was calculated as the ratio koff/kₒₙ.
(§2) Surface plasmon resonance was used to confirm binding specificities and affinities to human, mouse, and cynomolgus RSPOs. Fab fragments from antibody clones were digested, purified, and then assayed using a BIAcore™-2000 instrument for binding to recombinant proteins. Antibodies fell into three groups: those specific to RSPO2, those specific to RSPO3, and those with some degree of cross-reactivity (FIG. 5).

mouse RSPO2 [12] = target: T5, mouse RSPO2; test: SPR (Biacore) with the Fab; table row RSPO2, Affinity (nM) Fab
Protocol: as §1, §2

recombinant human RSPO3 [13] = target: T4, recombinant human RSPO3; test: SPR, BIAcore T200, huRSPO3 immobilized, antibody injected
Protocol: The binding affinity of the antibodies in this section was determined by BIAcore™ T200 Format. Briefly, BIAcore™ research grade CMS chips were activated with 1-ethyl-3-(3-dimethylaminopropyl) carbodiimide (EDC) and N-hydroxysuccinimide (NETS) reagents according to the supplier's instructions. huRSPO3 was immobilized to achieve approximately 50 response units (RU) in each flow cell. Unreacted coupling groups were blocked with 1M ethanolamine. For kinetics measurements, Four-fold serial dilutions of variant antibody was injected in HBS-P buffer (0.01M HEPES pH7.4, 0.15M NaCl, 0.005% surfactant P20) at 25° C. with a flow rate of 30 μl/min. Association rates (kon) and dissociation rates (koff) were calculated using a 1:1 Langmuir binding model (BIAcore™ T200 Evaluation Software version 2.0). The equilibrium dissociation constant (Kd) was calculated as the ratio koff/kon.

cynomolgus RSPO3 [14] = target: T2, cynomolgus RSPO3; test: SPR (Biacore) with the Fab; table row RSPO3, Affinity (nM) Fab
Protocol: as §1, §2

mouse RSPO3 [15] = target: T3, mouse RSPO3; test: as above
Protocol: as §1, §2

Kd (recombinant human RSPO3 [13]): 0.07 nM
B3: hu5D6v4.3 (Fab, V domains shown)
VH: EVQLVESGPGLVKPSETLSLTCTVSGDSITSGYWNWIRQPPGKGLEWIGYISYSGKTYQNPSLKSRITISRDTSKNQFSLKLSSVTAADTAVYYCATYYGYGGPWFAYWGQGTLVTVSS
VL: DIQMTQSPSSLSASVGDRVTITCKASQDIDSYLSWFQQKPGKAPKTLIYLTNRLVDGVPSRFSGSGSGTDYTLTISSLQPEDFATYYCLHYDEFPLTFGQGTKVEIK
notes: Humanized 5D6 variant; also called v1+T69 (LC)+(W47+I48+F78 (HC))

percentage of cells staining [1]: 95% | binding result [6]: no binding | percentage of cells staining [7]: 10% | percentage of cells staining [8]: 60% | IC50 (read off the curve) [9]: ~0.1 µg/mL | binding result [10]: no binding
B4: 21C2 (antibody, V domains shown)
VH: QVQLQQSGAELVRPGVSVKISCKGSGYTFTDYVIHWVKQSHAKSLEWIGVITTYYGDASYNQKFKGKATMTVDKSSSTAYMELARLTSEDSAIYYCARGAYGNSPSYWYFDVWGAGTSVTVSS
VL: DIVLTQSPASLTVSLGQRATISCRASESVDSYGNTFMHWYQQKPGQPPKLLIYLASNLESGVPARFSGSGSRTDFTLTIDPVEADDAATYYCQQNNEDPYTFGGGTKLEIK
notes: also called monoclonal antibody 21C2

Kd (cynomolgus RSPO3 [14]): 1.9 nM | Kd (mouse RSPO3 [15]): 3.36 nM | Kd (recombinant human RSPO3 [11]): 0.073 nM | binding result (mouse RSPO2 [12]): no binding
B6: Fab 5D6 (Fab, V domains shown)
VH: EVQLQESGPSLVKPSQTLSLTCSVTGDSITSGYWNWIRKFPGNKFEYMGYISYSGKTYQNPSLKSRISITRDTSKNQYHLQLNSVTTEDTATYYCATYYGYGGPWFAYWGQGTLVTVSA
VL: DIVLTQSPSSMYASLGERVTITCKASQDIDSYLSWFQQKPGKSPKTLIYLTNRLVDGVPSRFSGSGSGQDYSLTISSLEYEDMGIYYCLHYDEFPLTFGAGTKLEIK
notes: Fab expressed in E. coli for crystallography; also called 5D6 Fab

Second part, the binder before the results:

B1: 5C2 (antibody, V domains shown)
VH: EVQLQESGPGLVAPSQSLSITCTVSGFSLTSYGVHWVRQPPGKGLEWLGVIWTGGSTNYNSALMSRLSISKDNSKSQVFLKMNSLQTDDTAMYYCARVDGYYYFDYWGQGTTLTVSS
VL: DIVMTQSTSSLSASLGDRVTISCRASQDISNYLNWYQQKPDGTVKLLIYYTSRLHSGVPSRFSGSGSGTDYSLTISNLEPEDIATYFCQQGDTLPPTFGGGTKLEIK
notes: also called monoclonal antibody 5C2
percentage of cells staining [1]: > 95% | IC50, WNT luciferase reporter, bivalent antibody (cynomolgus RSPO3 [2]): 1.3 nM | IC50, WNT luciferase reporter, bivalent antibody (mouse RSPO3 [3]): 0.47 nM | IC50, WNT luciferase reporter, bivalent antibody (recombinant human RSPO3 [4]): 0.65 nM | IC50, WNT luciferase reporter, bivalent antibody (recombinant human RSPO2): > 500 nM | IC50, WNT luciferase reporter, bivalent antibody (mouse RSPO2 [5]): > 500 nM | IC50, WNT luciferase reporter, bivalent antibody (cynomolgus RSPO2): > 500 nM | binding result [6]: no binding | percentage of cells staining [7]: 40% | percentage of cells staining [8]: 60% | IC50 (read off the curve) [9]: ~0.1 µg/mL | binding result [10]: no binding

B2: 6E9 (Fab, V domains shown)
VH: QVQLKESGPGLVQPSQSLSITCTVSGFSLTSYGVHWVRQSPGKGLEWLGVIWSGGSTDYNAAFISRLSISKDNSKSQVFFKMNSLQANDTAIYYCARNDGYYYFDYWGQGTTLTVSS
VL: B1 VL with V3K, P80Q, T97A
notes: also called Fab of 6E9; 6E9 Fab
Kd (recombinant human RSPO3 [11]): 67 nM | binding result (mouse RSPO2 [12]): no binding

B5: 4H1 (Fab, V domains shown)
VH: EVKLVESGGGFVKPGGSLKLSCAASGFTFSNFAMSWVRQSPEKRLEWVAEINNGGNYAYYQDTVTGRFTISRDNAKNTLYLEMSSLRSEDTAMYFCAREDYVNYEAYFAYWGQGTTLTVSS
VL: SIVMTQTPLSLPVSLGDQASISCRSSQSIVHSNGNTYLEWYLQKPGQSPKLLIYRISNRFSGVPDRFSGSGSGTDFTLKISRVEAEDLGVYYCFQGSHVPYTFGGGTKLEIK
notes: also called Fab of 4H1; 4H1 Fab
Kd (cynomolgus RSPO3 [14]): 6.4 nM | Kd (mouse RSPO3 [15]): 6.8 nM | Kd (recombinant human RSPO3 [11]): 9.5 nM | binding result (mouse RSPO2 [12]): no binding
